Results as given in patent publication US7135457 (CYTOGEN, dated 2006).

T1: human D2H transporter receptor domain, amino acid residues 387-685, His-tag fusion protein (human, UniProt Q07837 387-685)
T1 construct: Expressed as His-tag fusion, purified under denaturing conditions, coated on plates; not shown: poly-histidine tag (pET His-tag) at the NH2-terminal end
T1 sequence: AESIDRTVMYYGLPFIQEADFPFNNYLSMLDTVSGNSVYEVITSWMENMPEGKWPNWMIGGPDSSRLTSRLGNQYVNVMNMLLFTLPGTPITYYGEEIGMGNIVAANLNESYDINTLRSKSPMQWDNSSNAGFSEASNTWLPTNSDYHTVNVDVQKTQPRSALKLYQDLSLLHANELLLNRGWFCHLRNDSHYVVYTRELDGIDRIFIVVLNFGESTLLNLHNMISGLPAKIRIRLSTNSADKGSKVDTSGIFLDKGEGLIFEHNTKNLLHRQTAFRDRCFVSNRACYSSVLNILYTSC

T2: human intestinal peptide-associated transporter HPT1 receptor domain, amino acid residues 29-273, His-tag … (human, UniProt Q12864 29-273)
T2 construct: Expressed as His-tag fusion, purified under denaturing conditions, coated on plates; not shown: poly-histidine tag (pET His-tag) at the NH2-terminal end
T2 sequence: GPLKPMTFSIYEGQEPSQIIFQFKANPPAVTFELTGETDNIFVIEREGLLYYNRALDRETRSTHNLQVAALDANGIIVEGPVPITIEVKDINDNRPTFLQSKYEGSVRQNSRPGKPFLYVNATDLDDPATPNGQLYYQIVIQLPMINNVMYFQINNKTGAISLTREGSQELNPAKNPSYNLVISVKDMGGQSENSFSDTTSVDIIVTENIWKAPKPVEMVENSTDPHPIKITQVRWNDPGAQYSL


What was measured:
[1] = target: T1, human D2H transporter receptor domain, …; experiment: phage ELISA, OD on D2H over OD on BSA
Description: (§1) 6.6. Receptor ELISA Procedure 96 well plates were coated overnight with GIT receptor, BSA and, optionally, IDE (insulin degrading enzyme, an irrelevant His-fusion protein) or hTF. The plates were blocked for one hour with 0.5% BSA-PBS. After clarification, the amplified phage were diluted 1:100 in 1% BSA plus 0.05% Tween 20 in PBS and added to the plates. Following incubation of the plates on a rotator for 1 to 2 hours, the plates were washed 5 times with 1% BSA plus 0.05% Tween 20 in PBS. […] After the plates were washed 5 times, as described above, TMB substrate was added to the wells. The plates were read at 650 nm absorbance.
(§2) Binding to fixed Caco-2 cells, D2H and BSA was examined.

[2] = target: T1, human D2H transporter receptor domain, …; experiment: phage ELISA, coated D2H domain
Description: as §1, §2

[3] = target: T2, human intestinal peptide-associated …; experiment: phage ELISA, OD on HPT1 over OD on BSA
Description: as §1

[4] = target: T2, human intestinal peptide-associated …; experiment: phage ELISA, coated HPT1 domain
[5] = target: T2, human intestinal peptide-associated …; experiment: phage ELISA, OD on HPT1 over OD on BSA; remark: listed apart in the source

Binder | D2H/BSA [1] | OD [2] | HPT1/BSA [3] | OD [4] | HPT/BSA [5]
RYSGLSPRDNGPACSQEATLEGCGAQRLMSTRRKGRNSRPGWTL (pIII and flanks not included) [phage DCX42] | 2 ratio | 0.158 OD 650 nm | – | – | –
RWNWTVLPATGGHYWTRSTDYHAINNHRPSIPHQHPTPI (pIII and flanks not included) [phage DCX33] | 6 ratio | 0.616 OD 650 nm | – | – | –
RHISEYSFANSHLMGGESKRKGCGINGSFSPTCPRSPTPAFRRT (pIII and flanks not included) [phage HCA3] | – | – | 1 ratio | – | –
SREEANWDGYKREMSHRSRFWDATHLSRPRRPANSGDPN (pIII and flanks not included) [phage HAX9] | – | – | – | 0.382 OD 650 nm | 5 ratio
REFAERRLWGCDDLSWRLDAEGCGPTPSNRAVKHRKPRPRSPAL (pIII and flanks not included; also called H44) [phage HAX40] | – | – | – | 0.991 OD 650 nm | 15 ratio
SVGNDKTSRPVSFYGRVSDLWNASLMPKRTPSSKRHDDG (pIII and flanks not included) [phage DCX45] | 4 ratio | 0.336 OD 650 nm | – | – | –
SDHALGTNLRSDNAKEPGDYNCCGNGNSTGRKVFNRRRPSAIPT (pIII and flanks not included) [phage HAX42] | – | – | – | 0.32 OD 650 nm | 5 ratio
